Results taken from patent US20180319855A1, “GENETICALLY MUTATED AEQUORIN-BASED BIOSENSORS WITH EXTRA SENSITIVITY TO CALCIUM AND IMPROVED BIOLUMINESCENCE INTENSITY” (CENTRE NATIONAL DE LA RECHERCHE SCIENTIFIQUE (CNRS), priority 2015, published 2018).

Tests used:
[1] = Tsuzuki et al. 2005; cited from earlier work
[2] = Thermostability: relative bioluminescence activity after 30 min incubation; format: physicochemical; conditions: CLZ-f
Procedure, shortened: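 Purified photoprotein was reconstituted with CLZ-f and read for total counts with saturating calcium (50 mM Tris-HCl, 100 mM CaCl2, pH 7.5). It was then held at 30 to 40 °C for 30 min, re-equilibrated for 15 min and read again. Activity is 2nd/1st counts ×100.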

[3] = background art; cited from earlier work
[4] = Ca2+ sensitivity curves of reconstituted photoproteins (L/Lmax vs free Ca2+); format: biochemical
Procedure, shortened: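 Purified apoaequorin/redquorin mutants reconstituted overnight at 4 °C with 5 μM CLZ-f or native CLZ, then moved to zero-Ca2+ MOPS/KCl/EGTA buffer, pH 7.2. Luminescence in EGTA-buffered free-Ca2+ solutions, then saturating CaCl2 to obtain Lmax; EC50 from variable-slope sigmoidal fit of L/Lmax.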

[5] = CLZ-f, L/Lmax compared to Aeq-wt

EC50 ([4]; aequorin proteins reconstituted with CLZ-f, sigmoidal curve fit, mean ± SD, n at least 3, read-out: Calcium sensitivity, EC50): 659 ± 23 nM
B1: Aeq-wt: wild-type aequorin: apoaequorin of Aequorea victoria (SEQ ID NO:1) reconstituted with coelenterazine (protein, listed as Aequorea aequorea)
chain: SKLTSDFDNPRWIGRHKHMFNFLDVNHNGKISLDEMVYKASDIVINNLGATPEQAKRHKDAVEAFFGGAGMKYGVETDWPAYIEGWKKLATDELEKYAKNEPTLIRIWGDALFDIVDKDQNGAITLDEWKAYTKAAGIIQSSEDCEETFRVCDIDESGQLDVDEMTRQHLGFWYTMDPACEKLYGGAVP
modifications: reconstituted with coelenterazine; SITE (1)..(189) wild-type aequorin
emission half-life (t½) [1]: 0.8 s
Thermostability, luminescence activity relative to wt-aequorin ([2]; 30° C. for 30 min): 1.00
Thermostability, luminescence activity relative to wt-aequorin ([2]; 40° C. for 30 min): 1.00
affinity of aequorin for calcium [3]: around 1 μM
Relative intensity at pCa 6.5 [4, 5]: 1
Relative intensity at pCa 7.2 [4, 5]: 1
